{"source": "the Human Domainome abundance scans (Beltran et al. 2025)", "parents": {"B1": {"name": "Protein piccolo, residues 1058 to 1114; numbered along this chain, Q9Y6V0 (parent)", "chain": "TCPLCKTELNIGSKDPPNFNTCTECKNQVCNLCGFNPTPHLTEIQEWLCLNCQTQRA"}}, "note": "± gives the uncertainty stated by the source."}
{"variants_of": "B1", "test": "abundance fitness (aPCA) (normalised: wild type 0, dead -1); higher = more abundant; growth selection in yeast, the domain comes from the species named", "conditions": "Homo sapiens"}
{"variant": "TCPLCKTELNIGSPDPPNFNTCTECKNQVCNLCGFNPTPHLTEIQEWLCLNCQTQRA", "note": "[K14P]", "abundance fitness": "-0.116 ± 0.12"}
{"variant": "TCPLCKTELNIGSYDPPNFNTCTECKNQVCNLCGFNPTPHLTEIQEWLCLNCQTQRA", "note": "[K14Y]", "abundance fitness": "-0.554 ± 0.21"}
{"variant": "TCPLCKTELNIGSKDPPNFNTCTECKNQVCNLCGFNPTPHLTEIQEWLCLNCLTQRA", "note": "[Q53L]", "abundance fitness": "-0.386 ± 0.11"}
{"variant": "TCPLCKTELNIGSKDPPNFNTCTECKNQVCNLCGYNPTPHLTEIQEWLCLNCQTQRA", "note": "[F35Y]", "abundance fitness": "0.022 ± 0.15"}
{"variant": "TCPLCKTELNIGSKDPPNFNTCTECKNQVCNLCGMNPTPHLTEIQEWLCLNCQTQRA", "note": "[F35M]", "abundance fitness": "0.291 ± 0.12"}
{"variant": "TCPLGKTELNIGSKDPPNFNTCTECKNQVCNLCGFNPTPHLTEIQEWLCLNCQTQRA", "note": "[C5G]", "abundance fitness": "-0.685 ± 0.088"}
{"variant": "TCPLCKTELNYGSKDPPNFNTCTECKNQVCNLCGFNPTPHLTEIQEWLCLNCQTQRA", "note": "[I11Y]", "abundance fitness": "0.086 ± 0.15"}
{"variant": "TCPLCKTELNVGSKDPPNFNTCTECKNQVCNLCGFNPTPHLTEIQEWLCLNCQTQRA", "note": "[I11V]", "abundance fitness": "-0.046 ± 0.098"}
{"variant": "TCPLCKTELNIGSKDPPNFNTCTECKNQVCNLCGFNPTPHLTEIQLWLCLNCQTQRA", "note": "[E46L]", "abundance fitness": "-0.124 ± 0.1"}
{"variant": "TCPLCKTELNIGSKDPPNFNTCTECKNQVCNLCGFNPTPHLTEIQFWLCLNCQTQRA", "note": "[E46F]", "abundance fitness": "-0.363 ± 0.17"}
{"variant": "TCPLCKTELNIVSKDPPNFNTCTECKNQVCNLCGFNPTPHLTEIQEWLCLNCQTQRA", "note": "[G12V]", "abundance fitness": "-0.405 ± 0.084"}
{"variant": "TCPLCKTELNIRSKDPPNFNTCTECKNQVCNLCGFNPTPHLTEIQEWLCLNCQTQRA", "note": "[G12R]", "abundance fitness": "-0.05 ± 0.08"}
{"variant": "TCPLCKTELNIGSKDPPNFNTCTECKNQVCNLCGFNPTPHLTEIQEWLDLNCQTQRA", "note": "[C49D]", "abundance fitness": "-0.597 ± 0.2"}
{"variant": "TCPLCKTELNIGSKDPPNFNTCTECKNQVCNLCGFNPTPHLTEIQEWLHLNCQTQRA", "note": "[C49H]", "abundance fitness": "-0.761 ± 0.18"}
{"variant": "TCPLCKTELNIGSKDPPNFNTCTECKNQVCNLCGFNPTPHLTEIQEWLELNCQTQRA", "note": "[C49E]", "abundance fitness": "-1.01 ± 0.24"}
{"variant": "TYPLCKTELNIGSKDPPNFNTCTECKNQVCNLCGFNPTPHLTEIQEWLCLNCQTQRA", "note": "[C2Y]", "abundance fitness": "-1.15 ± 0.15"}
{"variant": "TCPLCKTELNIGSKDPPNFNTCTECKNQVCNLRGFNPTPHLTEIQEWLCLNCQTQRA", "note": "[C33R]", "abundance fitness": "-0.729 ± 0.1"}
{"variant": "TCPLCKTELNIGSKDPPNFNTCTECKNQVCNLLGFNPTPHLTEIQEWLCLNCQTQRA", "note": "[C33L]", "abundance fitness": "-0.819 ± 0.089"}
{"variant": "TCPLCKTELNIGSKDPPNFNTCTECKNQVCNLQGFNPTPHLTEIQEWLCLNCQTQRA", "note": "[C33Q]", "abundance fitness": "-0.623 ± 0.17"}
{"variant": "TCPLCKTELNIGSKDPPNFNTCTECKNQVCNLEGFNPTPHLTEIQEWLCLNCQTQRA", "note": "[C33E]", "abundance fitness": "-0.349 ± 0.13"}
{"variant": "TCPLCKTELNIGSKDPPNFNTCTECKNQVCNLCLFNPTPHLTEIQEWLCLNCQTQRA", "note": "[G34L]", "abundance fitness": "0.043 ± 0.087"}
{"variant": "TCPLCKTELNIGSKDPPNFNTCTECKNQVCNLCTFNPTPHLTEIQEWLCLNCQTQRA", "note": "[G34T]", "abundance fitness": "-1.02 ± 0.15"}
{"variant": "TCPLCKTELNIGSKDPPNFNTCTECKNQVCNLCHFNPTPHLTEIQEWLCLNCQTQRA", "note": "[G34H]", "abundance fitness": "-0.37 ± 0.24"}
{"variant": "TCPLCKTELNIGSKDPPNFNTCTECLNQVCNLCGFNPTPHLTEIQEWLCLNCQTQRA", "note": "[K26L]", "abundance fitness": "0.103 ± 0.095"}
{"variant": "TCPLCKTELNIGSKDPPNFNTCTECRNQVCNLCGFNPTPHLTEIQEWLCLNCQTQRA", "note": "[K26R]", "abundance fitness": "0.072 ± 0.11"}
{"variant": "TCPLCKTELNIGSKDPPNFNTCTECNNQVCNLCGFNPTPHLTEIQEWLCLNCQTQRA", "note": "[K26N]", "abundance fitness": "0.09 ± 0.19"}
{"variant": "TCPLCKTELNIGSKDPPNFNTCTECKNQVNNLCGFNPTPHLTEIQEWLCLNCQTQRA", "note": "[C30N]", "abundance fitness": "-0.612 ± 0.18"}
{"variant": "TCPLCKTELNIGSKDPPNFNTCTECKNQVINLCGFNPTPHLTEIQEWLCLNCQTQRA", "note": "[C30I]", "abundance fitness": "-0.887 ± 0.2"}
{"variant": "TCPLCKTELNIGSKDPPNFNTCTECKNQVVNLCGFNPTPHLTEIQEWLCLNCQTQRA", "note": "[C30V]", "abundance fitness": "-0.594 ± 0.099"}
{"variant": "TCPLCKTELNIGSKDPPNFNTCTECKNQVHNLCGFNPTPHLTEIQEWLCLNCQTQRA", "note": "[C30H]", "abundance fitness": "-0.17 ± 0.24"}
{"variant": "TCPLCKTENNIGSKDPPNFNTCTECKNQVCNLCGFNPTPHLTEIQEWLCLNCQTQRA", "note": "[L9N]", "abundance fitness": "-0.174 ± 0.16"}
{"variant": "TCPLCKTETNIGSKDPPNFNTCTECKNQVCNLCGFNPTPHLTEIQEWLCLNCQTQRA", "note": "[L9T]", "abundance fitness": "-0.081 ± 0.11"}
{"variant": "TCPLCKTEDNIGSKDPPNFNTCTECKNQVCNLCGFNPTPHLTEIQEWLCLNCQTQRA", "note": "[L9D]", "abundance fitness": "-0.138 ± 0.13"}
{"variant": "TCQLCKTELNIGSKDPPNFNTCTECKNQVCNLCGFNPTPHLTEIQEWLCLNCQTQRA", "note": "[P3Q]", "abundance fitness": "-0.506 ± 0.19"}
{"variant": "TCPLCKTELNIGSKDPPNFNTCTECKNQVCNLCGFVPTPHLTEIQEWLCLNCQTQRA", "note": "[N36V]", "abundance fitness": "0.068 ± 0.09"}
{"variant": "TCPLCKTELNIGSKDPPNFNTCTLCKNQVCNLCGFNPTPHLTEIQEWLCLNCQTQRA", "note": "[E24L]", "abundance fitness": "-0.363 ± 0.077"}
{"variant": "TCPLCKTELNIGSKDPPNFNTCTRCKNQVCNLCGFNPTPHLTEIQEWLCLNCQTQRA", "note": "[E24R]", "abundance fitness": "-0.01 ± 0.07"}
{"variant": "TCPLCKTELNIGSKDPPNFNTCTVCKNQVCNLCGFNPTPHLTEIQEWLCLNCQTQRA", "note": "[E24V]", "abundance fitness": "0.001 ± 0.086"}
{"variant": "TCPLCKTELNIGYKDPPNFNTCTECKNQVCNLCGFNPTPHLTEIQEWLCLNCQTQRA", "note": "[S13Y]", "abundance fitness": "-0.227 ± 0.18"}
{"variant": "TCPLCKTELNIGIKDPPNFNTCTECKNQVCNLCGFNPTPHLTEIQEWLCLNCQTQRA", "note": "[S13I]", "abundance fitness": "-0.21 ± 0.16"}
{"variant": "TCPLCKTELNIGAKDPPNFNTCTECKNQVCNLCGFNPTPHLTEIQEWLCLNCQTQRA", "note": "[S13A]", "abundance fitness": "-0.37 ± 0.095"}
{"variant": "TCPLCKTELAIGSKDPPNFNTCTECKNQVCNLCGFNPTPHLTEIQEWLCLNCQTQRA", "note": "[N10A]", "abundance fitness": "0.041 ± 0.096"}
{"variant": "TCPLCKTELNIGSKDPPNFNTCTECKNQICNLCGFNPTPHLTEIQEWLCLNCQTQRA", "note": "[V29I]", "abundance fitness": "-0.241 ± 0.078"}
{"variant": "TCPLCKTELNIGSKDPPNFNTCTECKNQHCNLCGFNPTPHLTEIQEWLCLNCQTQRA", "note": "[V29H]", "abundance fitness": "-0.1 ± 0.076"}
{"variant": "TCPLCKTELNIGSKDGPNFNTCTECKNQVCNLCGFNPTPHLTEIQEWLCLNCQTQRA", "note": "[P16G]", "abundance fitness": "-0.354 ± 0.12"}
{"variant": "TCPLCKTELNIGSKDPPNFNTCTECKNQVCNLCGFNPTPHLTEIQEWLCLDCQTQRA", "note": "[N51D]", "abundance fitness": "-0.166 ± 0.24"}
{"variant": "TCPLCKTELNIGSKDPPNFNTCTECKNQVCNLCGFNPTPHLTEIQEWLCLKCQTQRA", "note": "[N51K]", "abundance fitness": "-0.063 ± 0.22"}
